{"source": "paper PMC13438699", "about": "(Nature Communications, 2026)", "binders": {"B1": {"name": "047-09 4F04 Fab (Fab, V domains shown)", "VH": "EVQLVESGGGLVQPGGSLRLSCAASGFTFNTYNMNWVRQAPGKGLEWVSYISSSSLSRYYADSVKGRFTISRDNAKNSLFLQMNSLRAEDTAVYYCARGAQAGYSSFFPPTTFWGQGTLVTVSS", "VL": "EIVMTQSPATLSVSPGEGVTLSCRASQSVSSNLAWYQQKPGQAPRLLIYGASTRATGIPARFSGSGSGTEFTLTISSLQSEDFAVYYCQQYYNWPPLTFGGGTKVEIK"}, "B2": {"name": "CR9114 Fab (Fab, V domains shown)", "VH": "QVQLVQSGAEVKKPGSSVKVSCKSSGGTSNNYAISWVRQAPGQGLDWMGGISPIFGSTAYAQKFQGRVTISADIFSNTAYMELNSLTSEDTAVYFCARHGNYYYYSGMDVWGQGTTVTVSS", "VL": "QSALTQPPAVSGTPGQRVTISCSGSDSNIGRRSVNWYQQFPGTAPKLLIYSNDQRPSVVPDRFSGSKSGTSASLAISGLQSEDEAEYYCAAWDDSLKGAVFGGGTQLTVL", "notes": "source: Expi293F, transient co-transfection, purified (CaptureSelect CH1-XL)"}, "B3": {"name": "HB315 (IgG format) (antibody, V domains shown)", "VH": "EVQLLESGGGLAQPGGSLRLSCTASGFTFSNFAMNWVRQAPGKGLEWVSFINSGSGSTYYADSVKGRFTISRDNSENTLFLQMNSLRAEDTAVYYCAKDLGRAIFGLVIPEGAFDIWGQGTMVTVSS", "VL": "EIVMTQSPSSLSASVGDRVTITCRASQSINNHLNWYQQKPGKAPKLLIYAASSLQSGVPSRFSGSGSGTDFTLTISSLQPADFATYHCQQSYGVPLTFGQGTKVEIK"}, "B4": {"name": "HB315 Fab (Fab, V domains shown)", "VH": "B3 VH", "VL": "B3 VL"}, "B5": {"name": "HB31 wild type (WT) Fab (Fab, V domains shown)", "VH": "EVQLLESGGGLVQPGGSLRLSCTVSGFTSSNYDMSWVRQAPGKGLEWVSGISGTGRDTYYADSVKGRFTISRDNSKNTLSLQMNSLRADDTAVYFCARDRPVLRYFDWQPYGLDVWGKGTTVTVSS", "VL": "QSALTQPPSASGSPGQSVTISCTGTSSDVGGYNYVSWYQQYPSKAPKLMIYEVSKRPSGVPDRFSGSKSGNTASLTVSGLQAEDEADYYCNSYAGSNLYVFGTGTKVTVL", "notes": "also called HB31 WT Fab; HB31 Fab; source: Expi293F, transiently co-transfected, purified (CaptureSelect CH1-XL)"}, "B6": {"name": "HB31 Fab (Fab, V domains shown)", "VH": "B5 VH", "VL": "B5 VL"}, "B7": {"name": "HB34 Fab (Fab, V domains shown)", "VH": "B5 VH", "VL": "QSALTQPASVSGSPGQSITISCTGTSSDVGSYNLVSWYQQHPGKAPKLMIYEGSQRPSGVSNRFSGSKSGNTASLTISGLQAEDEADYYCCSYASSTSYVFGTGTKVTVL"}, "B8": {"name": "HB31 wild type (WT) IgG (antibody, V domains shown)", "VH": "B5 VH", "VL": "B5 VL", "notes": "copies: 2 + 2"}, "B9": {"name": "HB31 (IgG format) (antibody, V domains shown)", "VH": "B5 VH", "VL": "B5 VL", "notes": "also called HB31 wild type; WT"}, "B10": {"name": "HB34 (IgG format) (antibody, V domains shown)", "VH": "B5 VH", "VL": "B7 VL"}}, "key": {"[1]": {"target": "T1, A/Michigan/45/2015 (H1N1) HA (Influenza A virus A/Michigan/45/2015 …, UniProt A0A1J0CXU0, strain)", "test": "BLI", "details": "both partners purified"}, "[2]": {"target": "T2, A/USSR/90/1977 (H1N1) HA (Influenza A virus A/USSR/90/1977 (H1N1), UniProt P03453, strain)", "T2 construct": "source: bought: Sino Biological", "test": "ELISA", "details": "one partner purified"}, "[3]": {"target": "T3, A/California/07/2009 (H1N1) HA (Influenza A virus A/California/07/2009 …, UniProt C3W5X2, strain)", "T3 construct": "source: bought: BEI Resources (NR-42635)", "test": "ELISA", "details": "one partner purified"}, "[4]": {"target": "A/Beijing/262/1995 (H1N1) HA (Influenza A virus A/Beijing/262/1995 …, UniProt B4UPF7, strain)", "test": "ELISA", "details": "one partner purified"}, "[5]": {"target": "T1, A/Michigan/45/2015 (H1N1) HA", "test": "ELISA", "details": "one partner purified"}, "[6]": {"target": "T4, A/Taiwan/01/1986 (H1N1) HA (Influenza A virus A/Taiwan/1/1986 (H1N1), UniProt F5CU03, strain)", "T4 construct": "source: bought: Sino Biological", "test": "ELISA", "details": "one partner purified"}, "[7]": {"target": "T5, A/Solomon Islands/3/2006 (H1N1) HA (influenza A virus A/Solomon …)", "test": "ELISA", "details": "one partner purified"}, "[8]": {"target": "T6, A/Japan/305/1957 (H2N2) HA (Influenza A virus A/Japan/305/1957 …, UniProt Q0A2X3, strain)", "T6 construct": "source: Sf9, baculovirus, purified from supernatant (Ni Sepharose Excel, SEC)", "test": "ELISA", "details": "one partner purified"}, "[9]": {"target": "T5, A/Solomon Islands/3/2006 (H1N1) HA", "test": "cryo-EM structure", "details": "both partners purified"}, "[10]": {"target": "A/Texas/37/2024 (H5N1) HA (Influenza A virus A/Texas/37/2024 (H5N1), strain)", "test": "BLI", "details": "both partners purified"}}, "data": [{"binder": "B1", "values": [{"measurement": "binding result", "setting": "[1]", "value": "binds"}]}, {"binder": "B2", "values": [{"measurement": "binding result", "setting": "[1]", "value": "binds"}]}, {"binder": "B3", "values": [{"measurement": "binding result", "setting": "[2]", "value": "binds"}, {"measurement": "binding result", "setting": "[3]", "value": "binds"}, {"measurement": "binding result", "setting": "[4]", "value": "binds"}, {"measurement": "binding result", "setting": "[5]", "value": "binds"}, {"measurement": "binding result", "setting": "[6]", "value": "binds"}, {"measurement": "binding result", "setting": "[7]", "value": "binds"}, {"measurement": "fold stronger binding activity than HB31 and HB34 (ELISA)", "setting": "[8]", "value": "≥ 4", "unit": "fold"}]}, {"binder": "B4", "values": [{"measurement": "binding result", "setting": "[9]", "value": "binds"}, {"measurement": "binding result", "setting": "[1]", "value": "binds"}]}, {"binder": "B5", "values": [{"measurement": "Kd", "setting": "[10]", "value": 4.5, "unit": "nM"}]}, {"binder": "B6", "values": [{"measurement": "binding result", "setting": "[9]", "value": "binds"}, {"measurement": "binding result", "setting": "[1]", "value": "binds"}]}, {"binder": "B7", "values": [{"measurement": "binding result", "setting": "[9]", "value": "binds"}, {"measurement": "binding result", "setting": "[1]", "value": "binds"}]}, {"binder": "B8", "values": [{"measurement": "Kd", "setting": "[10]", "value": 1.6, "unit": "nM"}]}, {"binder": "B9", "values": [{"measurement": "binding result", "setting": "[2]", "value": "binds"}, {"measurement": "binding result", "setting": "[3]", "value": "binds"}, {"measurement": "binding result", "setting": "[6]", "value": "binds"}, {"measurement": "binding result", "setting": "[7]", "value": "binds"}]}, {"binder": "B10", "values": [{"measurement": "binding result", "setting": "[2]", "value": "binds"}, {"measurement": "binding result", "setting": "[3]", "value": "binds"}, {"measurement": "binding result", "setting": "[4]", "value": "binds"}, {"measurement": "binding result", "setting": "[5]", "value": "binds"}, {"measurement": "binding result", "setting": "[6]", "value": "binds"}, {"measurement": "binding result", "setting": "[7]", "value": "binds"}]}]}
